Legend:
[1] = biological target: ΔEGF/Lam_Celsr3 (Celsr3-Flag lacking all the EGF repeats and Laminin domains) (mouse) (UniProt Q91ZI0); assay: co-IP
[2] = biological target: ΔLaminin G1_Celsr3 (Celsr3-Flag lacking the Laminin G1 domain) (mouse) (UniProt Q91ZI0); assay: co-IP

B1: mouse Frizzled3 (Frizzled3-HA) (receptor)
chain: HSLFSCEPITLRMCQDLPYNTTFMPNLLNHYDQQTAALAMEPFHPMVNLDCSRDFRPFLCALYAPICMEYGRVTLPCRRLCQRAYSECSKLMEMFGVPWPEDMECSRFPDCDEPYPRLVDLNLVGDPTEGAPVAVQRDYGFWCPRELKIDPDLGYSFLHVRDCSPPCPNMYFRREELSFARYFIGLISIICLSATLFTFLTFLIDVTRFRYPERPIIFYAVCYMMVSLIFFIGFLLEDRVACNASSPAQYKASTVTQGSHNKACTMLFMVLYFFTMAGSVWWVILTITWFLAAVPKWGSEAIEKKALLFHASAWGIPGTLTIILLAMNKIEGDNISGVCFVGLYDVDALRYFVLAPLCLYVVVGVSLLLAGIISLNRVRIEIPLEKENQDKLVKFMIRIGVFSILYLVPLLVVIGCYFYEQAYRGIWETTWIQERCREYHIPCPYQVTQMSRPDLILFLMKYLMALIVGIPSIFWVGSKKTCFEWASFFHGRRKKEIVNESRQVLQEPDFAQSLLRDPNTPIIRKSRGTSTQGTSTHASSTQLAMVDDQRSKAGSVHSKVSSYHGSLHRSRDGRYTPCSYRGMEERLPHGSMSRLTDHSRHSSSHRLNEQSRHSSIRDLSNNPMTHITHGTSMNRVIEEDGTSA
B1 was tested, and the percent reduction of the interaction against wild type Celsr3 [1] was 68% and the percent reduction of the interaction against wild type Celsr3 [2] was 66%.

Source: publication doi:10.1101/2020.09.09.273011
